From patent publication US20140286950A1 (Genentech, published 2014) come the findings set out here.

In test [1] the target is T1, N-terminal HIS-tagged mouse CD83 stably expressed on CHO cells (CHO-mCD83) (mouse, UniProt O88324 22-196).
T1 construct: whole, on cells; also called CHO cells expressing mouse CD83; not shown: N-terminal HIS tag
T1 sequence (looked up): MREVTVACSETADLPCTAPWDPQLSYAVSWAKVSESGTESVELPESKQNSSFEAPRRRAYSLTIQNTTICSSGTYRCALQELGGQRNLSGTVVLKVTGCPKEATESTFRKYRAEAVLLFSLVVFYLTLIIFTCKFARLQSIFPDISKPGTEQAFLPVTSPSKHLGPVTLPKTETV
Nature of the test: flow cytometry on CHO-mCD83 cells, anti-hamster IgG secondary. The protocol: (§1) The generated antibodies were assayed for their ability to bind human CD83 or mouse CD83 stably expressed on CHO cells. To generate an expression vector for the production of the stable cell lines, a DNA fragment encoding an N-terminal HIS-tagged human CD83 (hCD83) or an N-terminal HIS-tagged mouse CD83 (mCD83) was cloned into the neomycin-resistance plasmid, pRKneo (Crowley et al., Proc Natl Acad Sci USA., 90(11):5021-5025, 1993), at the XbaI and XhoI sites to produce hCD83.pRKneo or mCD83.pRKneo, respectively. CHO cells were transfected with hCD83.pRKneo or mCD83.pRKneo using Fugene (Roche) and the top 10% of CD83 positive cells were sorted by FACS then selected with G418 ([…]; GIBCO) to generate the stable CHO-hCD83 or CHO-mCD83 cell line, respectively. CHO-hCD83 and CHO-mCD83 cells were resuspended in a FACS buffer containing PBS/2% BSA/2 mM EDTA and incubated with anti-human CD83 antibodies or anti-mouse CD83 antibodies for 30 minutes on ice. Cells were washed with FACS buffer and then incubated with a fluorochrome conjugated anti-hamster IgG secondary antibody for 30 minutes on ice in the dark. Cells were washed with FACS buffer and analyzed by flow cytometry on a LSR II flow cytometer using FACSDiva software (Becton Dickinson). Data analysis and construction of diagrams was done using FlowJo v.9.4.11.

For test [2], the target named is T2, N-terminal HIS-tagged human CD83 stably expressed on CHO cells (CHO-hCD83) (human, UniProt Q01151 20-205).
T2 construct: also called CHO cells expressing human CD83; not shown: N-terminal HIS tag
T2 sequence: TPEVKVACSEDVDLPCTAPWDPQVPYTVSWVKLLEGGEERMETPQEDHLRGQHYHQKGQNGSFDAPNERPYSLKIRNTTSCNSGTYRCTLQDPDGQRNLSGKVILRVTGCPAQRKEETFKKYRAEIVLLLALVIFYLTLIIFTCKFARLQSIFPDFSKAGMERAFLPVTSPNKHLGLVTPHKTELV
Briefly: flow cytometry on CHO-hCD83 cells, anti-hamster IgG secondary. The protocol: as §1

B1: anti-CD83 antibody 42C6 (antibody, V domains shown)
VH: QVQLKESGPGLVKPSQSMSLTCSVNGFSITSRYWWTWIRQFPGKNLEWMGYISYSGGTSYNPSLKSRISITRDTSKNQFFLHLNSVTTADTATYYCARDLYGTYFDYWGQGTMVTVSS
VL: QYELIQPKSVSESLGRTVTISCKRSSGNIGNNYVHWYQQHFGSSPKTVIYDDNKRPSGVPHRFSGSIDSSSNSASLTITDLQIEDEAEYYCQSAWVFGSGTKVTVL
notes: also called 42C6 Anti-mouse CD83
For the molecule B1, the binding result in test [1] is “binds”; in test [2], “no binding”.

B2: anti-CD83 antibody 39A2 (antibody, V domains shown)
VH: QVQLKESGPGLVKPSQSMSLTCSVNGFSITSRYWWTWIRQFPGKNLEWMGYISYSGGTSYNPSLKSRISITRDTSKNQFFLHLNSVTTADTATYYCARDLYGTYFDYWGQGTLVTVSS
VL: QYELIQPKSVSESLGRTVTISCKRSSGNIGNNYVHWYQQHFGSSPKTVIYDDNKRPSGVPHRFSGSIDSSSNSASLTITDLQIEDEAEYYCQSAWVFGSGTKVTVL
notes: also called 39A2 Anti-mouse CD83
As to B2, the binding result in test [1] is on record as “binds”; in test [2] it was “no binding”.

B3: anti-CD83 antibody 60B10 (antibody, V domains shown)
VH: QVQLKESGPGLVKPSQSLSLTCSVTGFSITTGGYWWTWIRQFPGQKLEWMGYIFSSGNTNYNPSIKSRISITRDTSKNQFFLQLNSVTTEGDTARYYCARAYGKLGFDYWGQGTLVTVSS
VL: QPVLTQSPSASASLGNSVKITCTLSSQHSTYTIGWYQQHPDKAPKYVMYVNSDGSHSKGDGIPDRFSGSSSGAHRYLSISNIQPEDEADYFCGSSDSSGYVFGSGTQLTVL
notes: also called 60B10 Anti-human CD83
As for B3, the binding result in test [1] and in test [2] was “binds” in each case.
